This data set is described as follows: yeast display, Sf9 membrane polyspecificity reagent, FACS + sequencing; frameworks hold sequencing errors. In a few lines:
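A synthetic nanobody library was expressed on Saccharomyces cerevisiae BJ5465 by galactose induction for 36–48 hours. The library was stained for 1 hour at 4 °C with 10% biotinylated, detergent-solubilized Sf9 membrane reagent and enriched with streptavidin microbeads before FACS. Low and high (top ~1%) gates were set on anti-HA fluorescence for expression and streptavidin fluorescence for reagent binding, and each polyreactivity label reflects the gate of origin.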
Consider “QVQLVESGGGLVQAGGSLRLSCAASGFIFKYYAMGWYRQAPGKERELVAAISRSGGSTYYADSVKGRFTISRDNAKNTVYLLMNSLKPEDTAVYYCAADSSWVHEYYYWGQGTQVTVSS”, for which the “polyreactivity (PSR sort gate)” value is given as “high polyreactivity”.

For the sequence “QVQHEESGGGLVQAGGSLRLSCAASGSIFTPTPKGCYRQAPGKERELVAAISSSSDRTYYADSVKGRFTISRDNAKNTVYLEMNSLKPEDTAVYFCAAYAQKRYYWGQGTQVNVSS”, the “polyreactivity (PSR sort gate)” value is “high polyreactivity”.

Turning to “QVQLVESGGGLVQAGVSLRLSCAASGSIFRWNAMGWYRQAPGKERELVAAITGSGGSTYYADSVKGRFTISRDNAKNTVYLQMNSLKPEDTAVYYCAAKSPRILLDYWGQGTQVTVSS”, the “polyreactivity (PSR sort gate)” value is recorded as “low polyreactivity”.

Turning to “QVQLVESGGGLVQAGGSLRLSCAASGIIFRLNAMGWYRQAPGKVRELVAAIRRRGGSTYYADSVKGRFTISRDNAKNTVYLQMNSLKPEDTAVYYCAKDPHGSDFGYWGQGTQVTVSS”, the “polyreactivity (PSR sort gate)” value is “low polyreactivity”.

As for “QVQLVESGGGLVQAGGSLRLSCAASVSIFSSYAMGWYRQAPGKERELVAAISSSGDSTDADSVKGRFTISRDNAKNTVYLQMNSLKPEDTAVYYCAVGGAGSDDYWGHGTQVTVSS”, the “polyreactivity (PSR sort gate)” value is on record as “low polyreactivity”.

For “QVQLVESGGGLVQAGGSLRLSCAASVSIFYPYAMGWYRQAPGKERELVAAIRWSGGRTYYADSVKGRFTISRDNAKNTVYLQMNSLKPEDTAVYYCAADGQVSGYDYWGQGTQVTVSS”, the “polyreactivity (PSR sort gate)” value is “high polyreactivity”.

As to “QVQLVESGGGLVQAGGSLRLSCAASGSIFQRNAMGWYRQAPGKERELVASISFSDGTTYYADSVKGRCTISRDNAKNTVYLQMNSLKPEDTAVYYCAKKAIVSDQWDKYDYWGQGTQVTVSS”, the “polyreactivity (PSR sort gate)” value is “low polyreactivity”.

For the sequence “QVQLVESGGCLVQAGGSLRLSCAASGRIIGANAMGWYRQAPGKERELVAAITKNGGRTYYADSVKGRFTISRDNAKNTVYLQMNSLKPEDTAVYYCARGLDVISYGYDYWVQGTQVTVSS”, the “polyreactivity (PSR sort gate)” value was “high polyreactivity”.

Turning to “QVQLVESGGGLVQAGGSLRLSCAASGFTFVSNDMGWYRQAPGKERELVAAIRYRGGDTYYADSVKGRFTISRDNAKNTVYLQMNSLKPEDTAVYYCAVDVATYTAGWYYHGYDYWGQGTQVTVSS”, the “polyreactivity (PSR sort gate)” value is listed as “low polyreactivity”.

With “QVQLVVSGGGLVQAGGSLRLSCAASGYTFDDYAMAWYRQAPGKERELVAAISRGGSTYYADSVKGRFTISRDNAKNTVYLQMNSLIPEDTSVYYCAAVYRVRKITNDYWGQGTQVTVSS”, the “polyreactivity (PSR sort gate)” value is “high polyreactivity”.

Turning to “QVQLQVSGGGLVQAGGSLRLNSAASGAIFLTSEMGWYRQAPGKERELVAAIATGTSTNYADSVKGLFTISRDNAKNTVYLQMNSLKPEDTAVYYCATYHYWGQGTQVTVSS”, the “polyreactivity (PSR sort gate)” value is “low polyreactivity”.

For the sequence “QVQLVESGGGLVQAGGSLRLSCAASGLISRRNAMGWYRQAPGKERELVAAISTGSSTNYADSVKGRFTISRDNAKNTVYLQMNSLKPEDTAVYYCAATQYWWSTLGIRDDYWGQGTQVTVSS”, the “polyreactivity (PSR sort gate)” value is on record as “low polyreactivity”.

Turning to “QVQLVESGGGLVQAGGSLRLSCAASGFTLGTYAMGWYRQAPGKERELVAAISRGGGITYYADSVKGRFTISRDNAKNTVYLQMISLKPEDTAVYDCAADWRYWRWAFDYWGQGTQVTVSS”, the “polyreactivity (PSR sort gate)” value is given as “high polyreactivity”.

For “QVQLVESGGGLVQAGGSLRLSCAASGSIFTYYAMGWYRQAPGKERELVAAISSDGGRTFYADSVKGRFTISRDNAKNTVYLQMNSLKPEDTAVYYCAAETNRFPGYGYWGQGTQVTVSA”, the “polyreactivity (PSR sort gate)” value was “low polyreactivity”.

On to “QVQLVESRGGLVQAGGSLRLSCAASGSTFYIYAMGWYRQAPGKERELVAAIDWNDGSTYYADSVKGRFTISRDNAKNTVYLQMNSLKPEDTAVYYCAAAIYIYRDGTYDYWGQGTQVTVSS”, for which the “polyreactivity (PSR sort gate)” value was “high polyreactivity”.

For “QVQLVESGGGLVQAGGSLRLSCAASGFTFSKYGMGWYRQAPGKERELVAAISSGGSTHYADSVKGRFTISRDNAKNTVYLQMNILKPADTAVYYCNASSKFAKPQRYYWGQGTQVTVSS”, the “polyreactivity (PSR sort gate)” value is listed as “low polyreactivity”.

Regarding “QVQLVESGGGLVQAGGSLRLSCAASGSIFRSYAMGWYRQAPGKERELVAAITSRGSSTYYADSVTGRFTISRDNAKNTVYLQMNSLKPEDSAVYYCATVFPYSARDGLDYWGQGTQVTVSS”, the “polyreactivity (PSR sort gate)” value is on record as “high polyreactivity”.

Regarding “QVQLVESGGGLVQAGGSLRLSCADSGGTFGNTAMGLYRQAHGKEMELVAAINRSDGGTYYADSEKCRFTISRDNAKNTVYLQMNSLKPEDTAVYYCNADDFYYDEPYDFWGQGTQVTVSS”, the “polyreactivity (PSR sort gate)” value is listed as “low polyreactivity”.

In the case of “QVQLVESGGGLVQAGGSLRLSCAASGRTIGGNAMGRYRQAPGKERELVAAISWSGGRTYYADSVKGRFTISRDNAKNTVYLQMNSLKPEDTAVYYCNKVGYGFHGDYDYWGQGTQVTVSS”, the “polyreactivity (PSR sort gate)” value was “high polyreactivity”.

For “QVQLVESGGGLVQAGGSLRLSCAASGSTLYYYTMGWYRQAPGKERELVAAINWSGTITYYADSVKGRFTISRDNAKNTVYLQMNSLKPEDTAVYYCNAVYYRQGFDYWGQGTQVTVSS”, the “polyreactivity (PSR sort gate)” value is given as “high polyreactivity”.

As for “QVQLVESGGGLVQAGCSLRLSCAASGSTFYRYAMGWYRQAPGKERELVAAITSGTGTYYADSVKGRFTISRDNAKNTVYLQMNSLKPEDTAVYYCNARRYLRGYWGQGTQVTVSS”, the “polyreactivity (PSR sort gate)” value is “low polyreactivity”.

For “QVQLVESGGGLVQAGGSLRLSCDASGFIFGRNAMGWYRQAPGKERELVAGISSSGFRTFYADSVKGRFTISRDNAKNTDYLQMNSLKQEDTAVYYCAAEIRYYKYGSYYYWGKGTQVTVSS”, the “polyreactivity (PSR sort gate)” value is reported as “high polyreactivity”.

For “QVQLVESGGGLVQAGGSLRLSCAASGINFYYYTMGWYRQAPGKERELVAGITRGGRTYYADSVKGRFTISRDNAKNTVYLQMNSLKPEDTAVYYCNADPWWRFDYWGQGTQVTVSS”, the “polyreactivity (PSR sort gate)” value is on record as “low polyreactivity”.

For “QVQLVESGGGLVQAGGSLRLSCAASGRIHVYTMRWYRQAPGQERELVAAITWSGTSTNYADSVKGRFTLSRDNAKNTVYLKMNILKPEDTAVYYCAADISGVLSVSNVRGFDYWGQGTQVTVSS”, the “polyreactivity (PSR sort gate)” value is “low polyreactivity”.

In the case of “QVQLVESGGGLVQAGGSLRLSCAASAFIFGHYAMGWYRQAPGKERELVAGINSSGGSTHYADSVKGRFTISRDNAKKTVYLQMNSLKPEDTAVYYCAVAARTRARVLYGYDYWGQGTQVTVSS”, the “polyreactivity (PSR sort gate)” value was “low polyreactivity”.

Turning to “QVQLVESGGGLVQAGGSLRLSCAASGRIFSYYVMGWNRQAPGKERELVAAITSGGSTNYADSEKGRFTISRDNAKNTVYLQMNSLKPEDTAVYYCNRAYTYINRLYGYWGQGTQVTVSS”, the “polyreactivity (PSR sort gate)” value is “high polyreactivity”.

As for “QVQLVESGGGLVQAGGSLRLSCAASGSTFFPYAMGWYRQAPGKERELVAGISSDGGTSYADSVKGRFTISRDNAKNTVYLQMNSLKPEDTAVYYCAALQADRGGWYDYWGQGTQVTVSS”, the “polyreactivity (PSR sort gate)” value is listed as “low polyreactivity”.

With “QVQLVESGGGLVQAGGSLRLSCAASGFIFGVYDMGRYRQAPVKERDLVAAISIDDITNYADSVKGRFTISRDNAKNTVYLHLNSLKPEVTAVYYCAADGRTWWSNLEGEYWGQGTQVTVSS”, the “polyreactivity (PSR sort gate)” value is listed as “low polyreactivity”.

For the sequence “QVQLVESGGGLVQAGGSLRLSCAASGRIFNPNAMGWDRQAPGKERELVAAISTSGDSTYADSVKGRFTISRDNAKNTVYLQMNSLKPEDTAVYYCAATSGRRTTRWGRYGYWGQGTQVTVSS”, the “polyreactivity (PSR sort gate)” value was “high polyreactivity”.

Turning to “QVQLGESGGGLVQAGGSLRLSCAASGLILYGYAMGLYRPAPGKERELVATITIGGSTYYADSVKGRFTISRDNAKNTVYLQMNRLNPEDTAVYYCAAEDTLAGSVARFGEYDYWGQGSQVTVSS”, the “polyreactivity (PSR sort gate)” value is given as “low polyreactivity”.

For the origin of these results see the nanobody polyreactivity screen of Harvey et al. (2022).
